According to paper PMC9801508 (2022):
Like-named read-outs stand apart in the source and are kept apart here. Blank lines part the entries; values can stand above or below the binder they belong to.

B1: BCL11A extended zinc finger domain (exZnF23) (domain or fragment)
chain: PPVKSKSCEFCGKTFKFQSNLVVHRRSHTGEKPYKCNLCDHACTQASKLKRHMKTHMHKSSPMTVKSDDGLSTASSPEPGTSDLVGSASSALKSVVAKFKSENDPNLIPENGD

How the values were obtained:
[1] = molecular target: B1; assay: MST
[2] = molecular target: T1, BCL11A ZnF23 zinc finger domain; assay: MST
T1 chain: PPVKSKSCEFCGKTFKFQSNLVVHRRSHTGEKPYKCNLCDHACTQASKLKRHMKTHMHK

[3] = molecular target: B1; assay: MST
[4] = molecular target: B1

Binder: B1
- Kd (Q100L): 224 nM
- Kd (A97V): 75.2 nM
- Kd (W108R): 56.5 nM
- Kd (V102D): 331 nM
- Kd (L81F): 1460 nM

- Kd [1]: 1260 nM
- Kd [2]: 32.9 µM
B2: Nanobody wt2D9 (initial hit) (VHH)
VHH: QVQLVESGGGLVQAGGSLRLSCAASGSIFVNNAMGWYRQAPGKERELVAAISASGGSTYYADSVKGRFTISRDNAKNTVYLQMNSLKPEDTAVYYCAADQDVYPYEYWGQGTQVTVSS

- Kd [3]: 674 nM
B3: ZF5.3-2D9 (cell-permeant nanobody) (other)
chain: QVQLVESGGGLVQAGGSLRLSCAASGSIFVNNAMGWYRQAPGKERELVAAISASGGSTYYADSVKGRFTISRDNAKNTVYLQMNSLKPEDTAVYYCAADQDGYPYEYWGQGTQVTVSS

- Kd [3]: 320 nM
- Kd [4]: 343 nM
B4: Nanobody 2D9 (2D9_V102G) (VHH)
VHH: QVQLVESGGGLVQAGGSLRLSCAASGSIFVNNAMGWYRQAPGKERELVAAISASGGSTYYADSVKGRFTISRDNAKNTVYLQMNSLKPEDTAVYYCAADQDGYPYEYWGQGTQVTVSS

- Kd [4]: 23.4 nM
B5: Nanobody 2D9_W108L (VHH)
VHH: QVQLVESGGGLVQAGGSLRLSCAASGSIFVNNAMGWYRQAPGKERELVAAISASGGSTYYADSVKGRFTISRDNAKNTVYLQMNSLKPEDTAVYYCAADQDVYPYEYLGQGTQVTVSS
